Data from patent US20210261648A1 (published 2021).
Where a chain is given by its changes, count along the chain named. In names and notes the source's numbering stands.

How the values were obtained:
[1] = molecular target: T1, FcγRIa extracellular domain with C-terminal His tag (human, UniProt P12314 16-292); assay: SPR, captured antibody, FcgR analyte
T1 construct: also called FcgRIa
Experimental: (§1) Relative binding activities were calculated for the results of analyzing interactions with the respective FcγRs according to the following method.

[2] = molecular target: T2, FcγRIIb extracellular domain with C-terminal His tag (human, UniProt P31994 43-217); assay: SPR, captured antibody, FcgR analyte
T2 construct: extracellular domain; also called FcgRIIb
T2 sequence (looked up): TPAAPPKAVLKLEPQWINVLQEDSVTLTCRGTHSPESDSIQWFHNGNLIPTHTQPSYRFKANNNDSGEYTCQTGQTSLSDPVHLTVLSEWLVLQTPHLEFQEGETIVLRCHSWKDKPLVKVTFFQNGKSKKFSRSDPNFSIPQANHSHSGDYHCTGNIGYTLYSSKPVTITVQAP
Experimental: as §1

[3] = molecular target: T3, FcγRIIa type H extracellular domain with C-terminal His tag (human, UniProt P12318 34-217); assay: SPR, captured antibody, FcgR analyte
T3 construct: extracellular domain; also called FcgRIIaH; FcγRIIa H
T3 sequence (looked up): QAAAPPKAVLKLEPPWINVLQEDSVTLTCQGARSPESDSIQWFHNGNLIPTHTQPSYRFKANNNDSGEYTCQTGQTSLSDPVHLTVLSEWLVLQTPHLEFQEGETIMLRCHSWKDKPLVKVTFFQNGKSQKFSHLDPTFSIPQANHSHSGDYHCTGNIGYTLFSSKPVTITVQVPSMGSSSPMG
Experimental: as §1

[4] = molecular target: T4, FcγRIIb extracellular domain with C-terminal His tag (human, UniProt P31994 43-217); assay: SPR (Biacore)
T4 construct: extracellular domain; For crystals it was expressed with kifunensine and trimmed with Endo F1; also called FcgRIIb; FcγRIIb extracellular region
T4 sequence (looked up): T2 sequence (looked up)

T1 sequence (P12314 16-292): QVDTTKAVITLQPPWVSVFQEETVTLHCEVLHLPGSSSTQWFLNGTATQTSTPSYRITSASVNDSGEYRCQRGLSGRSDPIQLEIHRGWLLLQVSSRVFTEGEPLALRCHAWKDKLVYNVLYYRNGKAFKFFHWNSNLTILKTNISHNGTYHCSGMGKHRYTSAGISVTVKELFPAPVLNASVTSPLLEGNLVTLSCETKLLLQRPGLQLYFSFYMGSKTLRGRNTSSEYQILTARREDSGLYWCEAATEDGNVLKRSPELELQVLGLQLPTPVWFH

B1: IL6R-BP177/IL6R-L (antibody, human IgG1, kappa)
heavy: QVQLQESGPGLVKPSETLSLTCAVSGHSISHDHAWSWVRQPPGEGLEWIGFISYSGITNYNPSLQGRVTISRDNSKNTLYLQMNSLRAEDTAVYYCARSLARTTAMDYWGEGTLVTVSSASTKGPSVFPLAPSSKSTSGGTAALGCLVKDYFPEPVTVSWNSGALTSGVHTFPAVLQSSGLYSLSSVVTVPSSSLGTQTYICNVNHKPSNTKVDKKVEPKSCDKTHTCPPCPAPDYLGDDSVFLFPPKPKDTLMISRTPEVTCVVVDVSHEDGEVKFNWYVDGVEVHNAKTKPREEQYNSTYRVVSVLTVLHQDWLNGKEYKCKVSNDALPKPIEKTISKAKGQPREPQVYTLPPSRDELTKNQVSLTCLVKGFYPSDIAVEWESNGQPENNYKTTPPVLDSDGSFFLYSKLTVDKSRWQQGNVFSCSVMHEALHNHYTQESLSLSP
light: not shown
Question: How did the relative binding activity [1] turn out when B1 was run?
Answer: 57 relative (IL6R-BF648/IL6R-L = 100)

Question: And the relative binding activity [2]?
Answer: 177 relative (IL6R-BF648/IL6R-L = 100)

Question: And the relative binding activity [3]?
Answer: 409 relative (IL6R-BF648/IL6R-L = 100)

B2: IL6R-BP185/IL6R-L (antibody, human IgG1, kappa)
heavy: B1 heavy with D328A
light: not shown
Question: Which results are given for B2?
Answer: relative binding activity [1]: 47 relative (IL6R-BF648/IL6R-L = 100); relative binding activity [2]: 179 relative (IL6R-BF648/IL6R-L = 100); relative binding activity [3]: 446 relative (IL6R-BF648/IL6R-L = 100)

B3: IL6R-BP214/IL6R-L (antibody, human IgG1, kappa)
heavy: B1 heavy with G273P, Y298D
light: not shown
Question: B3 was tested. Which relative binding activity [1] did it give?
Answer: 36 relative (IL6R-BF648/IL6R-L = 100)

Question: What about the relative binding activity [2] of the same binder?
Answer: 174 relative (IL6R-BF648/IL6R-L = 100)

Question: What about the relative binding activity [3] of the same binder?
Answer: 285 relative (IL6R-BF648/IL6R-L = 100)

B4: IL6R-BP198/IL6R-L (antibody, human IgG1, kappa)
heavy: B1 heavy with D239G, H270D, D328A
light: not shown
Question: Which results are given for B4?
Answer: relative binding activity [1]: 104 relative (IL6R-BF648/IL6R-L = 100); relative binding activity [2]: 164 relative (IL6R-BF648/IL6R-L = 100); relative binding activity [3]: 188 relative (IL6R-BF648/IL6R-L = 100)

B5: IL6R-BP197/IL6R-L (antibody, human IgG1, kappa)
heavy: B1 heavy with H270D, Y298D
light: not shown
Question: How did the relative binding activity [1] turn out when B5 was run?
Answer: 71 relative (IL6R-BF648/IL6R-L = 100)

Question: And the relative binding activity [2]?
Answer: 179 relative (IL6R-BF648/IL6R-L = 100)

Question: And the relative binding activity [3]?
Answer: 294 relative (IL6R-BF648/IL6R-L = 100)

B6: IL6R-BP545/IL6R-L (antibody, human IgG1, kappa)
heavy: B1 heavy with Y236L, H270D, Y298D, D328K, K332R, D358E
light: not shown
Question: Does B6 bind [4]?
Answer: binds

B7: IL6R-BP448/IL6R-L (antibody, human IgG1, kappa, name in EU numbering)
heavy: B1 heavy with Y236L, S269A, H270E, D328K, K332R, P398D
light: not shown
Question: Does B7 bind [4]?
Answer: binds

B8: IL6R-BP187/IL6R-L (antibody, human IgG1, kappa)
heavy: B1 heavy with D235E, D239G, D328A
light: not shown
Question: What does the source list for B8?
Answer: relative binding activity [1]: 68 relative (IL6R-BF648/IL6R-L = 100); relative binding activity [2]: 157 relative (IL6R-BF648/IL6R-L = 100); relative binding activity [3]: 205 relative (IL6R-BF648/IL6R-L = 100)

B9: IL6R-BP196/IL6R-L (antibody, human IgG1, kappa)
heavy: B1 heavy with D235E, D239G, H270D, D328A
light: not shown
Question: Which relative binding activity [1] does the source give for B9 here?
Answer: 89 relative (IL6R-BF648/IL6R-L = 100)

Question: What about the relative binding activity [2] of the same binder?
Answer: 157 relative (IL6R-BF648/IL6R-L = 100)

Question: What about the relative binding activity [3] of the same binder?
Answer: 195 relative (IL6R-BF648/IL6R-L = 100)

B10: IL6R-BP183/IL6R-L (antibody, human IgG1, kappa)
heavy: B1 heavy with D239G, D328A
light: not shown
Question: What does the source list for B10?
Answer: relative binding activity [1]: 83 relative (IL6R-BF648/IL6R-L = 100); relative binding activity [2]: 164 relative (IL6R-BF648/IL6R-L = 100); relative binding activity [3]: 191 relative (IL6R-BF648/IL6R-L = 100)

B11: IL6R-BP201/IL6R-L (antibody, human IgG1, kappa)
heavy: B1 heavy with Y236L, D328K, K332R
light: not shown
Question: Which relative binding activity [1] does the source give for B11 here?
Answer: 57 relative (IL6R-BF648/IL6R-L = 100)

Question: And the relative binding activity [2]?
Answer: 186 relative (IL6R-BF648/IL6R-L = 100)

Question: What about the relative binding activity [3] of the same binder?
Answer: 359 relative (IL6R-BF648/IL6R-L = 100)

B12: IL6R-BP200/IL6R-L (antibody, human IgG1, kappa)
heavy: B1 heavy with K332R
light: not shown
Question: Which relative binding activity [1] does the source give for B12 here?
Answer: 60 relative (IL6R-BF648/IL6R-L = 100)

Question: What about the relative binding activity [2] of the same binder?
Answer: 188 relative (IL6R-BF648/IL6R-L = 100)

Question: What about the relative binding activity [3] of the same binder?
Answer: 517 relative (IL6R-BF648/IL6R-L = 100)

B13: IL6R-BP500/IL6R-L (antibody, human IgG1, kappa)
heavy: B1 heavy with D235E, Y236L, V266I, S269A, H270E, Y298D, D328K, K332A
light: not shown
Question: How did the “binding relative to IL6R-B3/IL6R-L” value [4] turn out when B13 was run?
Answer: ≥ 100 times

B14: IL6R-BP189/IL6R-L (antibody, human IgG1, kappa)
heavy: B1 heavy with D235E, Y236L, H270D, D328A
light: not shown
Question: How did the relative binding activity [1] turn out when B14 was run?
Answer: 56 relative (IL6R-BF648/IL6R-L = 100)

Question: What about the relative binding activity [2] of the same binder?
Answer: 177 relative (IL6R-BF648/IL6R-L = 100)

Question: What about the relative binding activity [3] of the same binder?
Answer: 183 relative (IL6R-BF648/IL6R-L = 100)

B15: IL6R-BP458/IL6R-L (antibody, human IgG1, kappa, name in EU numbering)
heavy: B1 heavy with Y236L, S269A, H270E, D328K, K332R, P398Q
light: not shown
Question: Does B15 bind [4]?
Answer: binds

B16: IL6R-BP449/IL6R-L (antibody, human IgG1, kappa, name in EU numbering)
heavy: B1 heavy with Y236L, S269A, H270E, D328K, K332R, P398E
light: not shown
Question: Does B16 bind [4]?
Answer: binds

B17: IL6R-BP546/IL6R-L (antibody, human IgG1, kappa)
heavy: B1 heavy with Y236L, H270D, Y298D, D328K, K332R, L360M
light: not shown
Question: Does B17 bind [4]?
Answer: binds

B18: IL6R-BP210/IL6R-L (antibody, human IgG1, kappa)
heavy: B1 heavy with D235E, Y236L, H270D, D328K, K332R
light: not shown
Question: For B18, which relative binding activity [1] is on record?
Answer: 57 relative (IL6R-BF648/IL6R-L = 100)

Question: And the relative binding activity [2]?
Answer: 187 relative (IL6R-BF648/IL6R-L = 100)

Question: And the relative binding activity [3]?
Answer: 279 relative (IL6R-BF648/IL6R-L = 100)

B19: IL6R-BP455/IL6R-L (antibody, human IgG1, kappa, name in EU numbering)
heavy: B1 heavy with Y236L, S269A, H270E, D328K, K332R, P398L
light: not shown
Question: Does B19 bind [4]?
Answer: binds

B20: variant resulting from adding S267A to IL6R-BP267/IL6R-L (antibody, human IgG1, kappa)
heavy: B1 heavy with Y236L, S269A, H270E, D328K, K332A
light: not shown
Question: Does B20 bind [4]?
Answer: binds

B21: IL6R-BP404/IL6R-L (antibody, human IgG1, kappa)
heavy: B1 heavy with H270E, Y298D, D328K, K332R
light: not shown
Question: For B21, which “fold increase of binding against IL6R-BP264/IL6R-L” value [4] is on record?
Answer: 1.1 fold
